These are literature values, as cited in PMC5535775.

For this data set, the target named is DIAPH1 FH1 (Homo sapiens) (UniProt O60610). The experiment in a line: NMR.
UniProt O60610, sequence (O60610 580-767): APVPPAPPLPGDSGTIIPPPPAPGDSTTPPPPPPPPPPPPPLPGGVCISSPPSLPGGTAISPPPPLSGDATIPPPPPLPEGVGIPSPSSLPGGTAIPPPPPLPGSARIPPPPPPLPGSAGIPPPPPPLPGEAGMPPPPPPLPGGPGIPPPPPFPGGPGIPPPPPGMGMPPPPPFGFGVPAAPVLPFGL

For the substance “RAGE cytoplasmic domain (from UniProt Q15109)”, the dissociation constant Kd was less than 10 µM.
